The values that follow come from the PETadex activity labels (doi:10.1126/science.aad6359).

Broadly, the Km is the substrate concentration at which the rate is half of its maximum. Broadly, the kcat is the number of substrate molecules converted per active site and unit of time at saturation. Broadly, the kcat/Km is the turnover number divided by the Michaelis constant.

Substrate in data set [1]: BHET
Nature of the data set: Proxy for plastic degradation [kcat] (s⁻¹). To be noted: pH 7.

Substrate in data set [2]: pNP-C2; pNP-C4; pNP-C6; pNP-C8
The data set can be described thus: Proxy for plastic degradation [kcat] (s⁻¹). The note with it: pH 7.

Substrate in data set [3]: hcPET
The data set can be described thus: Proxy for plastic degradation [Released monomer concentration (HPLC/LC-MS) (MHET+TPA)]. To be noted: pH 9.

Substrate in data set [4]: PET
Nature of the data set: Proxy for plastic degradation [Released monomer concentration (HPLC/LC-MS) (TPA+MHET+BHET)].

Substrate in data set [5]: MHET
To be noted: pH 7; 30 °C; part of the chain shown.

B1: unnamed (protein)
chain: MNFPRASRLMQAAVLGGLMAVSAAATAQTNPYARGPNPTAASLEASAGPFTVRSFTVSRPSGYGAGTVYYPTNAGGTVGAIAIVPGYTARQSSIKWWGPRLASHGFVVITIDTNSTLDQPSSRSSQQMAALRQVASLNGTSSSPIYGVKTARMVMGWSMGGGGSLISAANNPSLKAAAPQAPWDSSTNFSSVTVPTLIFACENDSIAPVNSSALPIYDSMSRNAKQFLEINGGSHSCANSGNSNQALIGKKGVAWMKRFMDNDTRYSTFACENPNSTRVSDFRTANCS
In the case of B1, the “Proxy for plastic degradation” value worked out at 0.8 in data set [1]; 0.005 in data set [2]; 0.01 mM in data set [3]; 0 mM in data set [4] (0 h); 0.32 mM in data set [4] (pH 7); 0.001 mM in data set [4] (pH 9, 20 °C). Besides, the “Proxy for plastic degradation” value came out at 0.01 mM in data set [4] (pH 9, 30 °C); 0.02 mM in data set [4] (pH 9, 35 °C); 0.03 mM in data set [4] (pH 9, 40 °C); 0.005 mM in data set [4] (pH 9, 50 °C); 0.0001 mM in data set [4] (pH 9, 60 °C); 0.0001 mM in data set [4] (pH 9, 70 °C). For the same protein, the “Proxy for plastic degradation” value in data set [4] (pH 9, 80 °C) is 0.0001 mM.

B2: unnamed (protein)
chain: MDGVLWRVRTAALMAALLALAAWALWASPSVEAQSNPYQRGPNPTRSALTADGPFSVATYTVSRLSVSGFGGGVIYYPTGTSLTFGGIAMSPGYTADASSLAWLGRRLASHGFVVLVINTNSRFDYPDSRASQLSAALNYLRTSSPSAVRARLDNARLAVAGHSMGGGGTLRIAEQNPSLKAAVPLTPWHTDKTFNTSVPVLIVGAEADTVAPVSQHAIPFYQNLPSTTPKVYVELDNASHFAPNSNNAAISVYTISWMKLWVDNDTRYRQFLCNVNDPALSFDRTNNRHCQ
For B2, the “Proxy for plastic degradation” value turned out to be 0.1 in data set [1]; 0.001 mM in data set [3]; 0.05 mM in data set [4] (pH 7); 0.0005 mM in data set [4] (pH 9, 20 °C); 0.01 mM in data set [4] (pH 9, 30 °C); 0.01 mM in data set [4] (pH 9, 35 °C). The “Proxy for plastic degradation” value was determined as 0.15 mM in data set [4] (pH 9, 40 °C); 1.2 mM in data set [4] (pH 9, 50 °C); 3.5 mM in data set [4] (pH 9, 60 °C); 2 mM in data set [4] (pH 9, 70 °C).

B3: unnamed (protein)
chain: MAVMTPRRERSSLLSRALQVTAAAATALVTVSLAAPAHAANPYARGPNPTDALLEASSGPFSVSEENVSRLSASGFGGGIYYPRENNTYGAVAISPGYTGTEASIAWLGERIASHGFVVITIDTITTLDQPDSRAEQLNAALNHMINRASSTVRSRIDSSRLAVMGHSMGGGGTLRLASQRPDLKAAIPLTPWHLNKNWSSVTVPTLIIGADLDTIAPVATHAKPFYNSLPSSISKAYLELDGATHFAPNIPNKIIGKYSVAWLKRFVDNDTRYTQFLCPGPRDGLFGEVEYRSTCPF
Take B3: the “Proxy for plastic degradation” value came out at 0.03 in data set [1]; 0.001 mM in data set [3]; 0.003 mM in data set [4] (pH 7); 0.0001 mM in data set [4] (pH 9, 20 °C); 0.0001 mM in data set [4] (pH 9, 30 °C); 0.0001 mM in data set [4] (pH 9, 35 °C). The “Proxy for plastic degradation” value in data set [4] (pH 9, 40 °C) was determined as 0.001 mM; in data set [4] (pH 9, 50 °C), 0.009 mM; in data set [4] (pH 9, 60 °C), 0.015 mM; in data set [4] (pH 9, 70 °C) it was 0.01 mM; in data set [4] (pH 9, 80 °C) it was 0.001 mM.

B4: unnamed (protein)
chain: MQTTVTTMLLASVALAACAGGGSTPLPLPQQQPPQQEPPPPPVPLASRAACEALKDGNGDMVWPNAATVVEVAAWRDAAPATASAAALPEHCEVSGAIAKRTGIDGYPYEIKFRLRMPAEWNGRFFMEGGSGTNGSLSAATGSIGGGQIASALSRNFATIATDGGHDNAVNDNPDALGTVAFGLDPQARLDMGYNSYDQVTQAGKAAVARFYGRAADKSYFIGCSEGGREGMMLSQRFPSHYDGIVAGAPGYQLPKAGISGAWTTQSLAPAAVGLDAQGVPLINKSFSDADLHLLSQAILGTCDALDGLADGIVDNYRACQAAFDPATAANPANGQALQCVGAKTADCLSPVQVTAIKRAMAGPVNSAGTPLYNRWAWDAGMSGLSGTTYNQGWRSWWLGSFNSSANNAQRVSGFSARSWLVDFATPPEPMPMTQVAARMMKFDFDIDPLKIWATSGQFTQSSMDWHGATSTDLAAFRDRGGKMILYHGMSDAAFSALDTADYYERLGAAMPGAAGFARLFLVPGMNHCSGGPGTDRFDMLTPLVAWVERGEAPDQISAWSGTPGYFGVAARTRPLCPYPQIARYKGSGDINTEANFACAAPP
Take B4: in data set [5], the Km amounted to 7.3 µM, the kcat was found to be 31 s⁻¹ and the catalytic efficiency (kcat/Km) is 4.25e+06 M⁻¹ s⁻¹.
